# Target: Lsm2/Lsm3;Lsm6/Lsm5/Lsm7;Lsm4-link-Lsm8 (human;human;human, UniProt Q9Y333;P62310;P62312;Q9Y4Y9;Q9UK45;Q9Y4Z0;O95777 …, ||)
# Experiment: gel filtration co-elution
binder,measurement,value
GGCAAUUUUUGACAGUCUCUACGGAGACUG (structured_RNA) [U4-5'Δ],binding result,no binding
